B1: av6_3 (designed binder)
chain: MAVVRFVFRGDLAELMLRAVKDHLKKEGPHWNITSTNNGAELVVRGIHESDAKRIAKWVEKRFPGVHTETQQD
notes: the purified protein (BLI, cell assays) carries a C-terminal His tag; also called αv6_3; original unevolved av6_3; not shown: C-terminal His tag of the purified protein (pET29b, NdeI/XhoI)
B2: av6_3 E13TM15RA39KG64R (designed binder)
chain: MAVVRFVFRGDLATLRLRAVKDHLKKEGPHWNITSTNNGKELVVRGIHESDAKRIAKWVEKRFPRVHTETQQD
notes: not shown: C-terminal His tag (pET29b, NdeI/XhoI)
B3: av6_3 M15R (designed binder)
chain: MAVVRFVFRGDLAELRLRAVKDHLKKEGPHWNITSTNNGAELVVRGIHESDAKRIAKWVEKRFPGVHTETQQD
notes: as for B2
B4: av6_3 A39K (designed binder)
chain: MAVVRFVFRGDLAELMLRAVKDHLKKEGPHWNITSTNNGKELVVRGIHESDAKRIAKWVEKRFPGVHTETQQD
notes: as for B2
B5: av6_3 E13TG64R (designed binder)
chain: MAVVRFVFRGDLATLMLRAVKDHLKKEGPHWNITSTNNGAELVVRGIHESDAKRIAKWVEKRFPRVHTETQQD
notes: as for B2
B6: av6_3 E13TM15RA39K (designed binder)
chain: MAVVRFVFRGDLATLRLRAVKDHLKKEGPHWNITSTNNGKELVVRGIHESDAKRIAKWVEKRFPGVHTETQQD
notes: as for B2
B7: av6_3 G64R (designed binder)
chain: MAVVRFVFRGDLAELMLRAVKDHLKKEGPHWNITSTNNGAELVVRGIHESDAKRIAKWVEKRFPRVHTETQQD
notes: as for B2
B8: av6_3 M15RG64R (designed binder)
chain: MAVVRFVFRGDLAELRLRAVKDHLKKEGPHWNITSTNNGAELVVRGIHESDAKRIAKWVEKRFPRVHTETQQD
notes: as for B2
B9: av6_4 (designed binder)
single chain: MAVVRFVFRGDLAELMLRAVKDHLKKEGPHWNITSTNNGAELVVRGIHESDAKRIAKWARLKFPGTDTRIEVR
B10: av6_8 (designed binder)
single chain: MAVVRFVFRGDLAELMLRAVKDHLKKEGPHWNITSDESGFELVVRGIHESDAKRIAKWARLKFPGTDTRIEVR
B11: av6_13 (designed binder)
single chain: MAVVRFVFRGDLAELMLRAVKDHLKKEGPHWNITSVESSQVELVVRGIHESDAKRIARTVEKLTNGKSQSLVL
B12: av6_1 (designed binder)
single chain: MAVVRFVFRGDLAELMLRAVKDHLKKEGPHWNITSTNNGAELVVRGIHESDAKRIARTVEKLTNGKSQSLVLT
B13: av6_5 (designed binder)
single chain: MAVVRFVFRGDLAELMLRAVKDHLKKEGPHWNITSDESGFELVVRGIHESDAKRIARTVEKLTNGKSQSLVLT
B14: av6_12 (designed binder)
single chain: MAVVRFVFRGDLAELMLRAVKDHLKKEGPHWNITSDTSKGAELVVRGIHESDAKRIAKWARLKFPGTDTRIEV
B15: av6_16 (designed binder)
single chain: MAVVRFVFRGDLAELMLRAVKDHLKKEGPHWNITSVESSQVELVVRGIHESDAKRIAKWARLKFPGTDTRIEV
B16: av6_11 (designed binder)
chain: MAVVRFVFRGDLAELMLRAVKDHLKKEGPHWNITSDTSKGAELVVRGIHESDAKRIAKWVEKRFPGVHTETQQ
notes: Yeast display: Aga2 fusion with C-terminal myc tag; also purified from E. coli with C-terminal His tag
B17: av6_15 (designed binder)
chain: MAVVRFVFRGDLAELMLRAVKDHLKKEGPHWNITSVESSQVELVVRGIHESDAKRIAKWVEKRFPGVHTETQQ
notes: as for B16
B18: evolved variant from the first round of design (02_E2V_T12A_E40V_S44I_T63I) (designed binder)
chain: AVVRFVFRGDLAELMLRAVKDHLKKEGPHWNITSRGNELVVRGIHESDAKRIQKEFPSVQSTIQA
notes: No substitutions were applied here; also called original crystallized variant
B19: av6_9 (designed binder)
chain: MAVVRFVFRGDLAELMLRAVKDHLKKEGPHWNITSDTSKGAELVVRGIHESDAKRIARTVEKLTNGKSQSLVL
notes: as for B16
B20: av6_7 (designed binder)
chain: MAVVRFVFRGDLAELMLRAVKDHLKKEGPHWNITSDESGFELVVRGIHESDAKRIAKWVEKRFPGVHTETQQD
notes: as for B16
B21: BP2 labelled with Alexa Fluor 488 on an engineered C-terminal cysteine (designed binder)
chain: MAVVRFVFRGDLAELMLRAVKDHLKKEGPHWNITSTNNGKELVVRGIHESDAKRIAKWVEKRFPRVHTETQQD
modifications: Alexa Fluor 488 C5 maleimide on the engineered C-terminal cysteine
notes: also called AG-AF488; fluorescently labelled BP2; not shown: engineered C-terminal cysteine and any tag
B22: BP1 labelled with Alexa Fluor 488 on an engineered C-terminal cysteine (designed binder)
chain: MAVVRFVFRGDLATLMLRAVKDHLKKEGPHWNITSTNNGAELVVRGIHESDAKRIAKWVEKRFPGVHTETQQD
modifications: Alexa Fluor 488 C5 maleimide on the engineered C-terminal cysteine
notes: also called E13T-AF488; fluorescently labelled BP1; not shown: engineered C-terminal cysteine and any tag

target: T1, human αvβ6 integrin, soluble protein (biotinylated for yeast display; in solution for BLI) (human, UniProt P06756 31-992; P18564 22-707, limits assumed, biotinylated in the yeast display experiments (site not stated)); assay: BLI (Octet RED96), His-tagged binder on Ni-NTA sensor, αvβ6 in solution
T1 construct: also called avb6; alpha(v) beta (6) integrin
T1 sequence (P06756 31-992 limits assumed, chain 1 of 2): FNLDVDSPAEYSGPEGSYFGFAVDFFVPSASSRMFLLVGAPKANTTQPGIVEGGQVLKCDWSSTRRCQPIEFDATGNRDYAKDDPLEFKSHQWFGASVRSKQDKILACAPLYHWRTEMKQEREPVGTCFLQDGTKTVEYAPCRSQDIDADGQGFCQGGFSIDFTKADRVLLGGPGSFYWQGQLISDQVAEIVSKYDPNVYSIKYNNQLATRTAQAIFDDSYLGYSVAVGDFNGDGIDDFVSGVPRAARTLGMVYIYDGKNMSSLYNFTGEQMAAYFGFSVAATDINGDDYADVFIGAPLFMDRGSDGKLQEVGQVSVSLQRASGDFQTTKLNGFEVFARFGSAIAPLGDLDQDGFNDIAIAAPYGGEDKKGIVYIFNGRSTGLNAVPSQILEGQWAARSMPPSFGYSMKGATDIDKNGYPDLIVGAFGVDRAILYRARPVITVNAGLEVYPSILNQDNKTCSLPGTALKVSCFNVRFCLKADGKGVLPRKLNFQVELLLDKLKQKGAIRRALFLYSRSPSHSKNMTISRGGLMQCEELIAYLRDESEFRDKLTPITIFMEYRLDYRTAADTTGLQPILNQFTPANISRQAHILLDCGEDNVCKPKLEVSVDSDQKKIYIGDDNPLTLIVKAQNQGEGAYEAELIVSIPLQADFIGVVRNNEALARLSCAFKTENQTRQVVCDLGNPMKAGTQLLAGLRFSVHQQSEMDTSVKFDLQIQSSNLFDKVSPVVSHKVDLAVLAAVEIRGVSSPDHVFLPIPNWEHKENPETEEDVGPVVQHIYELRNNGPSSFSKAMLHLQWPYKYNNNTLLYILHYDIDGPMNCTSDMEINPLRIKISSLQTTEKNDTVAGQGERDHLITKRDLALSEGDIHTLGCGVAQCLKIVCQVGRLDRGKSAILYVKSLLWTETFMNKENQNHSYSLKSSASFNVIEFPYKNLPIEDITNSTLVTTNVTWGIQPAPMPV
T1 sequence (P18564 22-707 limits assumed, chain 2 of 2): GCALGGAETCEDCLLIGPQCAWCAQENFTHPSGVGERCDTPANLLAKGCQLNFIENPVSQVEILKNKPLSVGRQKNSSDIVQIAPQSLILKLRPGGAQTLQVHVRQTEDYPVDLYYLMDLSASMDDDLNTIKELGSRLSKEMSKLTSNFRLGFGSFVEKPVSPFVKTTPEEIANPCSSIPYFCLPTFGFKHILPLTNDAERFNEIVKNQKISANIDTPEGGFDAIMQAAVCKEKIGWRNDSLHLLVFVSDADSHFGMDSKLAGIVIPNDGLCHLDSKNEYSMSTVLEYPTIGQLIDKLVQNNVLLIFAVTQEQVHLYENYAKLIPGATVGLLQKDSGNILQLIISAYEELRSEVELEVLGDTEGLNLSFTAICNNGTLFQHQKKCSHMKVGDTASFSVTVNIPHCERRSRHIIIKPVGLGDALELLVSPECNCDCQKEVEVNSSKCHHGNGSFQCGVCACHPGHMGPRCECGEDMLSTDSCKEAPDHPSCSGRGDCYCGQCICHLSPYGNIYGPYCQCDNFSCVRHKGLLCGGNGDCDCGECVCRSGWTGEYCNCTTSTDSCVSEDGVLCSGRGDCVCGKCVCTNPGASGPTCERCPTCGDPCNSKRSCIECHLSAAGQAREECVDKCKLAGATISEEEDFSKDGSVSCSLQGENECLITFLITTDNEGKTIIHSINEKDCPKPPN

Q: Which “apparent Kd (pooled screen)” value does the source give for B1 here?
A: The value was 1.18 nM.

target: T1, human αvβ6 integrin, soluble protein …; assay: as above; remark: another data set of the same source
Experimental: Data was collected on an Octet™ RED96 (Forte Bio) and processed using the instrument's software. His Tagged protein binders were immobilized on Ni-NTA octet sensors. The tips are then dipped into wells containing different concentrations of αᵥβ₆. Association and dissociation steps were recorded for 900 s and 1200 s respectively. An empty sensor with no loaded binding protein was included to discard any non-specific binding of αᵥβ₆ to the octet tip.

Q: B2 was tested. Which Kd did it give?
A: The Kd was 0.42 nM.

Q: For B3, which Kd is on record?
A: The Kd was 0.38 nM.

Q: How did the Kd turn out when B4 was run?
A: The Kd was 0.411 nM.

Q: With B5 as the binder, how does the Kd read?
A: Its Kd is 0.398 nM.

Q: How did the Kd turn out when B6 was run?
A: Its Kd is 0.397 nM.

Q: For B7, which Kd is on record?
A: Its Kd is 0.47 nM.

Q: For B8, which Kd is on record?
A: The Kd was 0.404 nM.

target: T1, human αvβ6 integrin, soluble protein …; assay: yeast surface display, flow cytometry, 50 pM biotinylated αvβ6 stained with SAPE
Source text: Yeast Display: Standard yeast surface display techniques were used to screen designs for binding and directed evolution. Genes encoding the designs were cloned into petcon2 in frame with N-term aga2 and C-term myc tag. Surface expression of Myc was detected using Anti-C Myc antibody and binding was detected by using biotinylated human αᵥβ₆ and stained with phycoerythrin conjugated streptavidin for FACS. Two different buffers were used for the binding and washing steps for yeast display: Binding Buffer 20 mM TRIS, 150 mM NaCl, pH=8.0, 1% BSA, 1 mM Ca(II) and 1 mM Mg(II), Wash Buffer: 20 mM TRIS, 150 mM NaCl, pH=8.0, 0.5% BSA, 1 mM Ca(II) and 1 mM Mg(II).

Q: Does B9 bind?
A: Result: binds

Q: Does B10 bind?
A: Result: binds

Q: Does B11 bind?
A: Result: binds

Q: Does B12 bind?
A: Result: binds

Q: Does B13 bind?
A: Result: binds

Q: Does B14 bind?
A: Result: binds

Q: Does B15 bind?
A: Result: binds

target: T2, human αvβ6 integrin on cells (A431 carcinoma cells; K562 cells stably transfected with αvβ6) (human, UniProt P06756 31-1048; P18564 22-788); assay: row 'X(selectivity)' of the drawn table: αvβ6 over αvβ8, cell surface competition assay
T2 construct: whole, on cells; Endogenous on A431 cells, transfected on K562 cells; also called αvβ6(+) cells; K562 avb6 transfected clone A4
T2 sequence (P06756 31-1048, chain 1 of 2): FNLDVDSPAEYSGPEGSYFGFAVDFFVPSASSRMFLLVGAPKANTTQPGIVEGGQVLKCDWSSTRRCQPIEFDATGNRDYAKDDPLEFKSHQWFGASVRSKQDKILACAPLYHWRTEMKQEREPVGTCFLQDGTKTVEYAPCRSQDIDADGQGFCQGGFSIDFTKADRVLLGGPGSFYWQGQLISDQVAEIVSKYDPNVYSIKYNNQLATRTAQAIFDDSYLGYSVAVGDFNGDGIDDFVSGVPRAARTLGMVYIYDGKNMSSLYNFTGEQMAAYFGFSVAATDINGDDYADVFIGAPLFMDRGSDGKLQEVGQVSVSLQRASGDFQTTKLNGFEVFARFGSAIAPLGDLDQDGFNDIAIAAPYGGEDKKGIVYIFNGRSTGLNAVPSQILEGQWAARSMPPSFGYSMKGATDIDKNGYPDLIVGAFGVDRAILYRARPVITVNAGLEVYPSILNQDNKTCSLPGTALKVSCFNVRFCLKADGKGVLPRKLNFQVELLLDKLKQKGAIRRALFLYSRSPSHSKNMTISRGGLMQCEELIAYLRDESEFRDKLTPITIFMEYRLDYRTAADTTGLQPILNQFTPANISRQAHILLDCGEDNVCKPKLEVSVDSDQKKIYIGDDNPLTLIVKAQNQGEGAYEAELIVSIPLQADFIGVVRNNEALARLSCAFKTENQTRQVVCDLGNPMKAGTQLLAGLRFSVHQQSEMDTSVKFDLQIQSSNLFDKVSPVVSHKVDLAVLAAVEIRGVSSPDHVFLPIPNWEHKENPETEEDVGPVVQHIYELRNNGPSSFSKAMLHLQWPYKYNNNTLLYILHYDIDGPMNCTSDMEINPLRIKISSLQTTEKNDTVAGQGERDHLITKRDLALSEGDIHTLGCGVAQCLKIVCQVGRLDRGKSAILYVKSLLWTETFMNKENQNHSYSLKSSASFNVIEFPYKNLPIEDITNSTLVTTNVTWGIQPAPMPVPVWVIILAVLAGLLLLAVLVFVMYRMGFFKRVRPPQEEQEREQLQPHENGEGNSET
T2 sequence (P18564 22-788, chain 2 of 2): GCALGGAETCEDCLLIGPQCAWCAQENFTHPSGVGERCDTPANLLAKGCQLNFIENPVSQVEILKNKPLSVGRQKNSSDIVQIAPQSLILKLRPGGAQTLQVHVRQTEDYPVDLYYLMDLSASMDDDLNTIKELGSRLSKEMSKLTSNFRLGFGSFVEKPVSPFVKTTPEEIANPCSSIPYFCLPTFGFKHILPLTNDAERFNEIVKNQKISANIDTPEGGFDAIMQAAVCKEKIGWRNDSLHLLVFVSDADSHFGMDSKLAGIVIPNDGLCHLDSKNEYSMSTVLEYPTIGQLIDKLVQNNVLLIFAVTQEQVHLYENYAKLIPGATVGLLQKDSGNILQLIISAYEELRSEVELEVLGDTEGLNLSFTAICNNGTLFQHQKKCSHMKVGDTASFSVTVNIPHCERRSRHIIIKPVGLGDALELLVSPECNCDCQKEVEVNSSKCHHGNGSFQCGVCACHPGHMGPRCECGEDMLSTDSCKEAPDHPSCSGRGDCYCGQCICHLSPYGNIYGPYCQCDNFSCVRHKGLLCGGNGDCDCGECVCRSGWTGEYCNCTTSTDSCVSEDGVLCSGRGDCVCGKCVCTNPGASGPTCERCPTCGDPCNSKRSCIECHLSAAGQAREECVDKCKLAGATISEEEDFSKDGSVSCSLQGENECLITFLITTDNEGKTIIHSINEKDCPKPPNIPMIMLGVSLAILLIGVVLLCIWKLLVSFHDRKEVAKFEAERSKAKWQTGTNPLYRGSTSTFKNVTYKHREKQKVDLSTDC

Q: B16 was tested. Which “X(selectivity)” value did it give?
A: Its value is 8 X.

Q: Which “X(selectivity)” value does the source give for B17 here?
A: The value was 6 X.

Q: Which “X(selectivity)” value does the source give for B18 here?
A: The value was 3 X.

Q: B19 was tested. Which “X(selectivity)” value did it give?
A: The value was 3 X.

Q: Which “X(selectivity)” value does the source give for B1 here?
A: Its value is 14 X.

Q: For B20, which “X(selectivity)” value is on record?
A: Its value is 1.5 X.

target: T2, human αvβ6 integrin on cells (A431 …); assay: flow cytometry titration of AF488-labelled binder on A431 cells, 5 hours at 4° C., one site-specific binding fit
Source text: We set out to test the ability of these binders to bind to αᵥβ₆(+) cells and block TGF-β mediated downstream signaling. We generated fluorescently labelled BP1 and BP2 by conjugating Alexafluor-488 to an engineered C-term cysteine via maleimide chemistry. The fluorescently labelled proteins were titrated against αᵥβ₆ positive human epidermoid carcinoma A431 cells.
Epidermoid cancer cells (A431) and human embryonic kidney 293T cells (HEK 293T) were purchased from American Type Culture Collection (ATCC) and grown in Dulbecco's Modified Eagle Medium (DMEM, Gibco) supplemented with 10% fetal bovine serum (FBS, Gibco) in a humidified atmosphere with 5% CO2 at 37° C. Binding assays were performed on A431 carcinoma cells. A431 cells were dissociated from culture flasks with enzyme-free cell dissociation buffer (Gibco). Varying concentrations of AG-AF488 and E13T-AF488 were incubated with 5×10^4 A431 cells in 1×TBS with 0.1% BSA, 1 mM Ca2+, and 1 mM Mg2+ (BTBS) rotating in suspension for 5 hours at 4° C. Sufficient incubation volumes were used to avoid >5% ligand depletion. After incubation, cells were washed with BTBS and analyzed by flow cytometry on an Accuri™ C6 instrument (BD Biosciences), and data were quantified using FlowJo™ software (TreeStar). Kd values were determined by fitting the data to a one site—specific binding curve using Prism™ 7 (GraphPad Software).

Q: Which Kd does the source give for B21 here?
A: Its Kd is 0.03 nM.

Q: Which Kd does the source give for B22 here?
A: Its Kd is 0.167 nM.
